Data reported in paper doi:10.1101/803361 (bioRxiv, 2019).

Key:
[1] = biological target: Human Hsc70 (HSPA8), wild type (human, UniProt P11142 1-646); experiment: HDX-MS
[2] = biological target: the molecule itself; experiment: SEC + native gel or EMSA

Chain of Human Hsc70 (HSPA8), wild type (P11142 whole entry): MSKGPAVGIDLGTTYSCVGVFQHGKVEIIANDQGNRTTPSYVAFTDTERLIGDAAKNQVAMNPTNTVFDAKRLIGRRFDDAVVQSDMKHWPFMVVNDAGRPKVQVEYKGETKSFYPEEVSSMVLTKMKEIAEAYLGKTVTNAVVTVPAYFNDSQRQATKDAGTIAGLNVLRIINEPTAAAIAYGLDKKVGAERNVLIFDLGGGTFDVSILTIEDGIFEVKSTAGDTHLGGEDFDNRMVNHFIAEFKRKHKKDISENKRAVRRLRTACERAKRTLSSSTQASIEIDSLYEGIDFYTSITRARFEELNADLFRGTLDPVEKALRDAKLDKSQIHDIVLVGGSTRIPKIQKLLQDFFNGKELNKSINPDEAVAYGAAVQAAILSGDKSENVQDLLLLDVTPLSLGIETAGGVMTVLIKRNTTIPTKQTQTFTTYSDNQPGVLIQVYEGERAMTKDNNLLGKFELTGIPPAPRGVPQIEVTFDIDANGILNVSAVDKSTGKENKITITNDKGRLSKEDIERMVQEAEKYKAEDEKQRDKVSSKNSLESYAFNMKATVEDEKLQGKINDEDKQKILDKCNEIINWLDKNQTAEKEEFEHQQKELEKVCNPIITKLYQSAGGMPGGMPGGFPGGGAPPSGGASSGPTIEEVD

Row | Binder | binding result [1] | stoichiometry N [2]
1 | Human heat shock transcription factor 1 (Hsf1), wild type (natural protein) MDLPVGPGAAGPSNVPAFLTKLWTLVSDPDTDALICWSPSGNSFHVFDQGQFAKEVLPKYFKHNNMASFVRQLNMYGFRKVVHIEQGGLVKPERDDTEFQHPCFLRGQEQLLENIKRKVTSVSTLKSEDIKIRQDSVTKLLTDVQLMKGKQECMDSKLLAMKHENEALWREVASLRQKHAQQQKVVNKLIQFLISLVQSNRILGVKRKIPLMLNDSGSAHSMPKYSRQFSLEHVHGSGPYSAPSPAYSSSSLYAPDAVASSGPIISDITELAPASPMASPGGSIDERPLSSSPLVRVKEEPPSPPQSPRVEEASPGRPSSVDTLLSPTALIDSILRESEPAPASVTALTDARGHTDTEGRPPSPPPTSTPEKCLSVACLDKNELSDHLDAMDSNLDNLQTMLSSHGFSVDTSALLDLFSPSVTVPDMSLPDLDSSLASIQELLSPQEPPRPPEAENSSPDSGKQLVHYTAQPLFLLDPGSVDTGSNDLPVLFELGEGSYFSEGDGFAEDPTISLLTGSEPPKAKDPTVS | binds | 
2 | Hsf1-I190S,I194S (natural protein) MDLPVGPGAAGPSNVPAFLTKLWTLVSDPDTDALICWSPSGNSFHVFDQGQFAKEVLPKYFKHNNMASFVRQLNMYGFRKVVHIEQGGLVKPERDDTEFQHPCFLRGQEQLLENIKRKVTSVSTLKSEDIKIRQDSVTKLLTDVQLMKGKQECMDSKLLAMKHENEALWREVASLRQKHAQQQKVVNKLSQFLSSLVQSNRILGVKRKIPLMLNDSGSAHSMPKYSRQFSLEHVHGSGPYSAPSPAYSSSSLYAPDAVASSGPIISDITELAPASPMASPGGSIDERPLSSSPLVRVKEEPPSPPQSPRVEEASPGRPSSVDTLLSPTALIDSILRESEPAPASVTALTDARGHTDTEGRPPSPPPTSTPEKCLSVACLDKNELSDHLDAMDSNLDNLQTMLSSHGFSVDTSALLDLFSPSVTVPDMSLPDLDSSLASIQELLSPQEPPRPPEAENSSPDSGKQLVHYTAQPLFLLDPGSVDTGSNDLPVLFELGEGSYFSEGDGFAEDPTISLLTGSEPPKAKDPTVS |  | 3
